{"source": "paper PMC9165289", "about": "“Theranostic PSMA ligands with optimized backbones for intraoperative multimodal imaging and photodynamic therapy of prostate cancer” (European Journal of Nuclear Medicine and Molecular Imaging, 2022)", "key": {"LS174T-PSMA cells": {"tested_on": "LS174T-PSMA cells", "assay": "in vitro targeted PDT assay (CellTiter-Glo)", "format": "cell-based, human", "settings": "30 nM ligand, irradiated with 100 J/cm^2", "description": "LS174T wildtype (LS174T-WT) and LS174T-PSMA cells were cultured to confluency in 48-well plates. Cells were incubated (2 h, 5% CO2, 37 °C) with 30-nM PSMA ligand in binding buffer (RPMI 1640 + 0.5% BSA) in triplicate. After washing with PBS, a 0.5-ml binding buffer was added to each well, and cells were irradiated with a NIR light-emitting diode (690 ± 20 nm). The typical forward voltage was 2.6 V creating a power output of 490 mW using 126 individual LED bulbs to ensure homogenous illumination of the area of interest predefined as 5 × 3 cm. The cells were irradiated at NIR radiant exposures of 100 J/cm^2 ([…]) and subsequently incubated for 1 h at 37 °C. Cells that only received the PSMA ligand, only the NIR light, or neither the ligand nor the light were included as controls. Cytotoxic effects of PDT with PSMA ligands were determined with a CellTiter-Glo™ assay (Promega Benelux) according to the manufacturer’s instructions. The binding buffer was replaced with 100-µl fresh binding buffer and 100-µl CellTiter-Glo® 2.0 Assay. Plates were shaken (2 min) and incubated for 10 min at room temperature. Next, luminescence was measured in a plate reader (Tecan Infinite® 200 PRO) to determine the metabolic activity of the cells."}, "[1]": {"assay": "PSMA-N064 blocking experiment, ex vivo biodistribution", "format": "in vivo, BALB/c nude mice", "settings": "male, BALB/c nude, mouse, in vivo, total radioactivity, 2 h p.i., n=5", "description": "All animal experiments were approved by the institutional Animal Welfare Committee of the Radboud University Medical Center and were conducted in accordance to the guidelines of the Revised Dutch Act on Animal Experimentation. Animal experiments were performed in 8–10 weeks old male BALB/c nude mice (Janvier). The mice were housed in individually ventilated cages (Blue line IVC, 3–5 mice per cage), under standard non-sterile conditions with cage enrichment present. There was free access to chlorophyll-free animal chow (Sniff Voer) and water. Mice were subcutaneously inoculated with 3.0 × 10^6 LS174T-PSMA cells in the right flank and 1.5 × 10^6 LS174T WT cells in the left flank (diluted in 200-µl RPMI 1640 medium). When xenografts were approximately 0.5 cm^3 (10–14 days after injection), mice were block-randomized into groups based on tumor size. The researchers were not blinded for the experimental groups.\nFive mice per group were intravenously injected with either 0.1 nmol PSMA-N064, 0.3 nmol PSMA-N064, 0.1 nmol PSMA-N064 + 10 nmol unlabeled PSMA-617 (100x excess) or PSMA-617. Ligands were labeled with 10 MBq ^111In in PBS+0.5% (w/v) BSA. For the ex vivo biodistribution four groups (one for each experimental condition) of five mice were included. Two hours p.i., all mice from all groups were euthanized by CO2/O2-asphyxiation and relevant tissues were dissected, weighed and measured for radioactivity in a gamma-counter (2480 WIZARD^2 Automatic Gamma Counter, PerkinElmer)."}}, "note": "Like-named read-outs stand apart in the source and are kept apart here.", "data": [{"smiles": "C[Si](C)(CCC[N+](CCCS(=O)(=O)[O-])(CCCS(=O)(=O)O)CCCS(=O)(=O)O)O[Si]1(O[Si](C)(C)CCC[N+](CCCS(=O)(=O)[O-])(CCCS(=O)(=O)O)CCCS(=O)(=O)O)n2c3c4ccccc4c2N=C2N=C(N=c4c5c(OCCCOC(=O)NCCCCCC(=O)NCCCC[C@H](NC(=O)CN6CCN(CC(=O)O)CCN(CC(=O)O)CCN(CC(=O)O)CC6)C(=O)NCCCC[C@H](NC(=O)[C@H](CCC(=O)O)NC(=O)c6ccccc6)C(=O)NC[C@H]6CC[C@H](C(=O)N[C@@H](Cc7ccc8ccccc8c7)C(=O)NCCCC[C@H](NC(=O)N[C@@H](CCC(=O)O)C(=O)O)C(=O)O)CC6)cccc5c(n41)=NC1=NC(=N3)c3ccccc31)c1ccccc12", "note": "[PSMA-N03]", "values": [{"measurement": "cell viability", "setting": "LS174T-PSMA cells", "value": "25% ± 4%"}]}, {"smiles": "C[Si](C)(CCC[N+](CCCS(=O)(=O)[O-])(CCCS(=O)(=O)O)CCCS(=O)(=O)O)O[Si]1(O[Si](C)(C)CCC[N+](CCCS(=O)(=O)[O-])(CCCS(=O)(=O)O)CCCS(=O)(=O)O)n2c3c4ccccc4c2N=C2N=C(N=c4c5c(OCCCOC(=O)NCCCCCC(=O)NCCCC[C@H](NC(=O)CN6CCN(CC(=O)O)CCN(CC(=O)O)CCN(CC(=O)O)CC6)C(=O)NCCCC[C@H](NC(=O)[C@H](CCC(=O)O)NC(=O)c6ccccc6)C(=O)NCc6ccc(C(=O)N[C@@H](Cc7ccc8ccccc8c7)C(=O)NCCCC[C@H](NC(=O)N[C@@H](CCC(=O)O)C(=O)O)C(=O)O)cc6)cccc5c(n41)=NC1=NC(=N3)c3ccccc31)c1ccccc12", "note": "[PSMA-N01]", "values": [{"measurement": "cell viability", "setting": "LS174T-PSMA cells", "value": "23% ± 5%"}]}, {"smiles": "C[Si](C)(CCC[N+](CCCS(=O)(=O)[O-])(CCCS(=O)(=O)O)CCCS(=O)(=O)O)O[Si]1(O[Si](C)(C)CCC[N+](CCCS(=O)(=O)[O-])(CCCS(=O)(=O)O)CCCS(=O)(=O)O)n2c3c4ccccc4c2N=C2N=C(N=c4c5c(OCCCOC(=O)NCCCCCC(=O)NCCCC[C@H](NC(=O)CCC(C(=O)O)N6CCN(CC(=O)O)CCN(CC(=O)O)CCN(CC(=O)O)CC6)C(=O)N[C@@H](Cc6ccccc6)C(=O)N[C@@H](CCC(=O)O)C(=O)N[C@@H](CCC(=O)O)C(=O)NCCCCCC(=O)NCCCC[C@H](NC(=O)N[C@@H](CCC(=O)O)C(=O)O)C(=O)O)cccc5c(n41)=NC1=NC(=N3)c3ccccc31)c1ccccc12", "note": "(some centres unmarked) [PSMA-N064]", "values": [{"measurement": "tissue uptake at 2 h", "setting": "[1]; iv, 0.1 nmol, 0.1 nmol, 10 MBq, i.v., read-out: Biodistribution Blood", "value": "0.2 ± 0.2", "unit": "%ID/g"}, {"measurement": "tissue uptake at 2 h", "setting": "[1]; iv, 0.1 nmol, 0.1 nmol, 10 MBq, i.v., read-out: Biodistribution Bone", "value": "0.7 ± 0.2", "unit": "%ID/g"}, {"measurement": "tissue uptake at 2 h", "setting": "[1]; iv, 0.1 nmol, 0.1 nmol, 10 MBq, i.v., read-out: Biodistribution Kidney", "value": "82.9 ± 7.8", "unit": "%ID/g"}, {"measurement": "tissue uptake at 2 h", "setting": "[1]; iv, 0.1 nmol, 0.1 nmol, 10 MBq, i.v., read-out: Biodistribution Liver", "value": "0.8 ± 0.1", "unit": "%ID/g"}, {"measurement": "tissue uptake at 2 h", "setting": "[1]; iv, 0.1 nmol, 0.1 nmol, 10 MBq, i.v., read-out: Biodistribution Muscle", "value": "0.4 ± 0.4", "unit": "%ID/g"}, {"measurement": "tissue uptake at 2 h", "setting": "[1]; iv, 0.1 nmol, 0.1 nmol, 10 MBq, i.v., read-out: Biodistribution Prostate", "value": "0.5 ± 0.2", "unit": "%ID/g"}, {"measurement": "tissue uptake at 2 h", "setting": "[1]; iv, 0.1 nmol, 0.1 nmol, 10 MBq, i.v., read-out: Biodistribution Salivary glands", "value": "0.6 ± 0.1", "unit": "%ID/g"}, {"measurement": "tissue uptake at 2 h", "setting": "[1]; iv, 0.1 nmol, 0.1 nmol, 10 MBq, i.v., read-out: Biodistribution Spleen", "value": "1.6 ± 0.4", "unit": "%ID/g"}, {"measurement": "tissue uptake at 2 h", "setting": "[1]; iv, 0.1 nmol, 0.1 nmol, 10 MBq, i.v., read-out: Biodistribution Tumor+ LS174T-PSMA", "value": "12 ± 2", "unit": "%ID/g"}, {"measurement": "tissue uptake at 2 h", "setting": "[1]; iv, 0.1 nmol, 0.1 nmol, 10 MBq, i.v., read-out: Biodistribution Tumor- LS174T", "value": "0.4 ± 0.1", "unit": "%ID/g"}, {"measurement": "tissue uptake at 2 h", "setting": "[1]; iv, 0.3 nmol, 0.3 nmol, 10 MBq, i.v., read-out: Biodistribution Blood", "value": "0.4 ± 0.3", "unit": "%ID/g"}, {"measurement": "tissue uptake at 2 h", "setting": "[1]; iv, 0.3 nmol, 0.3 nmol, 10 MBq, i.v., read-out: Biodistribution Bone", "value": "0.8 ± 0.1", "unit": "%ID/g"}, {"measurement": "tissue uptake at 2 h", "setting": "[1]; iv, 0.3 nmol, 0.3 nmol, 10 MBq, i.v., read-out: Biodistribution Kidney", "value": "64.4 ± 9.7", "unit": "%ID/g"}, {"measurement": "tissue uptake at 2 h", "setting": "[1]; iv, 0.3 nmol, 0.3 nmol, 10 MBq, i.v., read-out: Biodistribution Liver", "value": "1 ± 0.2", "unit": "%ID/g"}, {"measurement": "tissue uptake at 2 h", "setting": "[1]; iv, 0.3 nmol, 0.3 nmol, 10 MBq, i.v., read-out: Biodistribution Muscle", "value": "0.5 ± 0.3", "unit": "%ID/g"}, {"measurement": "tissue uptake at 2 h", "setting": "[1]; iv, 0.3 nmol, 0.3 nmol, 10 MBq, i.v., read-out: Biodistribution Prostate", "value": "0.6 ± 0.2", "unit": "%ID/g"}, {"measurement": "tissue uptake at 2 h", "setting": "[1]; iv, 0.3 nmol, 0.3 nmol, 10 MBq, i.v., read-out: Biodistribution Salivary glands", "value": "0.6 ± 0.2", "unit": "%ID/g"}, {"measurement": "tissue uptake at 2 h", "setting": "[1]; iv, 0.3 nmol, 0.3 nmol, 10 MBq, i.v., read-out: Biodistribution Spleen", "value": "1.9 ± 0.5", "unit": "%ID/g"}, {"measurement": "tissue uptake at 2 h", "setting": "[1]; iv, 0.3 nmol, 0.3 nmol, 10 MBq, i.v., read-out: Biodistribution Tumor+ LS174T-PSMA", "value": "12.2 ± 1.1", "unit": "%ID/g"}, {"measurement": "tissue uptake at 2 h", "setting": "[1]; iv, 0.3 nmol, 0.3 nmol, 10 MBq, i.v., read-out: Biodistribution Tumor- LS174T", "value": "0.5 ± 0.1", "unit": "%ID/g"}, {"measurement": "tissue uptake at 2 h", "setting": "[1]; 0.1 nmol + 10 nmol unlabeled PSMA-617 (block, 100x excess), read-out: Biodistribution Blood", "value": "0.2 ± 0.1", "unit": "%ID/g"}, {"measurement": "tissue uptake at 2 h", "setting": "[1]; 0.1 nmol + 10 nmol unlabeled PSMA-617 (block, 100x excess), read-out: Biodistribution Bone", "value": "0.4 ± 0.1", "unit": "%ID/g"}, {"measurement": "tissue uptake at 2 h", "setting": "[1]; 0.1 nmol + 10 nmol unlabeled PSMA-617 (block, 100x excess), read-out: Biodistribution Kidney", "value": "39.5 ± 5", "unit": "%ID/g"}, {"measurement": "tissue uptake at 2 h", "setting": "[1]; 0.1 nmol + 10 nmol unlabeled PSMA-617 (block, 100x excess), read-out: Biodistribution Liver", "value": "0.7 ± 0.2", "unit": "%ID/g"}, {"measurement": "tissue uptake at 2 h", "setting": "[1]; 0.1 nmol + 10 nmol unlabeled PSMA-617 (block, 100x excess), read-out: Biodistribution Muscle", "value": "0.1 ± 0.1", "unit": "%ID/g"}, {"measurement": "tissue uptake at 2 h", "setting": "[1]; 0.1 nmol + 10 nmol unlabeled PSMA-617 (block, 100x excess), read-out: Biodistribution Prostate", "value": "0.2 ± 0.1", "unit": "%ID/g"}, {"measurement": "tissue uptake at 2 h", "setting": "[1]; 0.1 nmol + 10 nmol unlabeled PSMA-617 (block, 100x excess), read-out: Biodistribution Salivary glands", "value": "0.4 ± 0.1", "unit": "%ID/g"}, {"measurement": "tissue uptake at 2 h", "setting": "[1]; 0.1 nmol + 10 nmol unlabeled PSMA-617 (block, 100x excess), read-out: Biodistribution Spleen", "value": "0.5 ± 0.1", "unit": "%ID/g"}, {"measurement": "tissue uptake at 2 h", "setting": "[1]; 0.1 nmol + 10 nmol unlabeled PSMA-617 (block, 100x excess), read-out: Biodistribution Tumor+ LS174T-PSMA", "value": "1 ± 0.1", "unit": "%ID/g"}, {"measurement": "tissue uptake at 2 h", "setting": "[1]; 0.1 nmol + 10 nmol unlabeled PSMA-617 (block, 100x excess), read-out: Biodistribution Tumor- LS174T", "value": "0.4 ± 0.2", "unit": "%ID/g"}]}]}
